Kd data for 21 variants are collected here from publication PMC6379675, “Structural insights into chromosome attachment to the nuclear envelope by an inner nuclear membrane protein Bqt4 in fission yeast” (Nucleic Acids Research, 2018).

B1: Sad1 (residues 88–101) [S. pombe] / Bqt4_(2–140), N-terminal domain of Bqt4 [S. pombe] (parent complex)
chain 1: SDNEEFENVVKNGH
chain 2: TENEKSRSLPAERNPLYKDDTLDHTPLIPKCRAQVIEFPDGPATFVRLKCTNPESKVPHFLMRMAKDSSISATSMFRSAFPKATQEEEDLEMRWIRDNLNPIEDKRVAGLWVPPADALALAKDYSMTPFINALLEASST
B2: Rap1_(479–527) [S. pombe] / Bqt4_(2–140), N-terminal domain of Bqt4 [S. pombe] (parent complex)
chain 1: EIPLLSDYSDSENISEKSSDDEEAFEKQVTSSYSSPIKVKSQGKSSKGS
chain 2: B1 chain 2
B3: Lem2_(261–279) [S. pombe] / Bqt4_(2–140), N-terminal domain of Bqt4 [S. pombe] (parent complex)
chain 1: SAEEDDELFQNYVLQQTRK
chain 2: B1 chain 2

One assay covers variants of B1. Nature of the assay: ITC; parent: 3.7e+03 nM. Background: Isothermal titration calorimetry measures the heat released or taken up as one component is titrated into another.
Regarding chain 2 R47E, the Kd (usually the concentration at which binding is half-saturated) was 262 µM.

Another assay covers variants of B2. The assay is described as follows: ITC; parent: 1.14e+04 nM.
For the variant chain 2 D89R, the Kd is 14.4 µM. chain 2 R32A: the Kd worked out at 12.3 µM.

Another assay covers variants of B2. Nature of the assay: ITC; parent: 1.14e+04 nM. This is another data set of the same source.
With chain 1 S19E, the Kd turned out to be 2.6 µM. Still for that read-out and setting: next, chain 1 S19A: 9.5 µM. The same measure, in the same setting: the figure for chain 1 S35A is 7.9 µM.

Consider chain 1 S35E, for which the dissociation constant (Kd) was 57.8 µM. Regarding chain 1 S18A, chain 1 S19A, the Kd was 8 µM. chain 1 S18A: the Kd was found to be 10.6 µM. In the case of chain 1 S18E, the Kd came to 2.4 µM. The same measure, in the same setting: next, chain 1 S18E, chain 1 S19E: 0.9 µM; chain 1 S34A: 7.1 µM.

Regarding chain 1 S34E, the Kd is 27.2 µM.

With chain 1 S34A, chain 1 S35A, the Kd is 7.3 µM.

For chain 1 S34E, chain 1 S35E, the Kd came to 115 µM.

The variants in another assay derive from B2. Nature of the assay: ITC; parent: 1.14e+04 nM. This is another data set of the same source.
With chain 1 F25A, the Kd stood at 106 µM. Consider chain 1 D21A, chain 1 E22A, for which the Kd turned out to be 862 µM. Same read-out and setting: the figure for chain 1 V29A is 138 µM.

The variants in another assay derive from B2. Nature of the assay: ITC; parent: 1.14e+04 nM. This is another data set of the same source.
As to chain 2 F60A, the Kd was determined as 909 µM.

A further assay covers variants of B3. The assay is described as follows: ITC; parent: 530 nM.
For the variant chain 2 F60A, the Kd is 46 µM.

chain 2 R47E: the equilibrium dissociation constant (Kd) was 3.2 µM.
